Measurements as given in the nanobody polyreactivity screen of Harvey et al. (2022).

Test: yeast display, Sf9 membrane polyspecificity reagent, FACS + sequencing; frameworks hold sequencing errors
In short: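 Nanobodies came from a synthetic yeast display library in Saccharomyces cerevisiae BJ5465, induced with galactose for 36–48 hours and stained for 1 hour at 4 °C with 10% biotinylated, detergent-solubilized Sf9 membrane reagent. Cells were enriched on streptavidin microbeads and then FACS-sorted, with low and high (top ~1%) gates set on anti-HA fluorescence for expression and streptavidin fluorescence for reagent binding. Each polyreactivity label reflects the gate a clone came from. Genes were amplified by colony PCR, sequenced by MiSeq 2 × 250 and filtered by CDR length.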

Sequence | polyreactivity (PSR sort gate)
QVQLVESGGGLVQAGGSLRLSCAASGRTFVYNAMGWYRQAPGKERELVAAINWRGGSTYYADSVKGRFTISRDNAKNTVSLQMNSLKPEDTAVYYCAPRNVYVWYDYWGQGTQVTVSS | low polyreactivity
QVQLVESGGGLVQAGGSLRLSCAASGRTFVYNAMGWYRQAPGKERELVAAITRNGGSTYYADSVKGRFTISRDNAKNTVYLQMNSLKPEDTAVYYCNRDVRYVGRSGFDYWGQGTQVTVSS | high polyreactivity
QVQLVESGGGLVQAGGSLRLSCAASGRTFVYNAMGWYRQAPGKERELVAAITSGGSTYYADSVKGRFTMSRDNAKNTVYLQMNSLKPEDTAVYYCDGYKRGYYWGQGTQVTVSS | high polyreactivity
QVQLVESGGGLVQAGGSLRLSCAASGRTFVYYAMGWYRQAPGKERELVAAITSGGSTNYADSVKGRFTISRDNAKNTVYLQMNSLKPEDTAVYYCNAYGVSWFYYTWKYDYWGQGTQVTVSS | low polyreactivity
QVQLVESGGGLVQAGGSLRLSCAASGRTFVYYAMGWYRQAPGKERELVATISTTGGRTYYADSVKGRFTISRDNAKNTVYLQMNSLKPEDTAVYYCAADLYGAYGYWGQGTQVTVSS | low polyreactivity
QVQLVESGGGLVQAGGSLRLSCAASGRTFVYYAMGWYRQAPGKERELVATITRGGRTNYADSVKGRFTISRDNAKNTVYLQMNSLKPEDTAVYYCNARYSWWRSRVGSSHRPDGYWGQGTQVTVSS | high polyreactivity
QVQLVESGGGLVQAGGSLRLSCAASGRTFWANAMGWYRQAPGKERELVAAITIDGRTSYADSVKGRFTISRDNAKNTVYLQMNSLKPEDTAVYYCATEPFYTYGYYTYPYWYDYWGQGTQVTVSS | low polyreactivity
QVQLVESGGGLVQAGGSLRLSCAASGRTFWDYAMGWYIQAPGKEREFVAAINTSGGRTYYADSVKGRFTISRDNAKNTVYLQMNSLKPEDTAVYYCAARTRDRAYDSWGQGTQVTVSS | high polyreactivity
QVQLVESGGGLVQAGGSLRLSCAASGRTFWFNAMGWYRQAPGKARELVAAISGITGSTYYADSVKGRITISRDNAKNTVYLQMNSLKPEATAVYYCATNRRGTWDYDYWGQGTQVTVSS | low polyreactivity
QVQLVESGGGLVQAGGSLRLSCAASGRTFWFYAMGWYRQAPGKERELVATINYRGGTTYYADSVKGRFTISRDNAKNTVYLQMNSLKPEDTAVYYCAVRPTRTFIYVYWGQGTEVTVSS | high polyreactivity
QVQLVESGGGLVQAGGSLRLSCAASGRTFWGITMGWYRQAPGKERELVASITYSGGRTYYADSVKGRFTISRDNAKNTVYLQMNSLKPEDTAVYYCAATLYRYRYFGYDYWGQGTQVTVSS | high polyreactivity
QVQLVESGGGLVQAGGSLRLSCAASGRTFWIYAMGWYRQAPGKERELVAGISRSGGSTNYADSVKGRFTISRDNAKNTVYLQMNSLKPEDTAVYYCNTDPYSSAWYNYDYWGQGTQVTVSS | low polyreactivity
QVQLVESGGGLVQAGGSLRLSCAASGRTFWKNTMGWSRQAPGKERELVAVISSGGVSTSYADSVKGRFTISRDNAKNTVYLQMNSLKPEDTAVYYCAADGYYIGPYDYWGQGTQVTVSS | low polyreactivity
QVQLVESGGGLVQAGGSLRLSCAASGRTFWNYAMGWYRQAPGKERDLVAVIRFSDGSTYYAYSVKGRFTISRDNAKNTVYLHMNSLKPEDTAVYYCAAKGPRRWGSGFDYWGQGTQVTVSS | low polyreactivity
QVQLVESGGGLVQAGGSLRLSCAASGRTFWPYVMGWYRQAPGKERELVASITRSGGTTNYADSVKGRFTISRDNAKNTVYLQMNSLKPEDTAVYYCNARTVYSWSREYNYWGQGTQVTVSS | high polyreactivity
QVQLVESGGGLVQAGGSLRLSCAASGRTFWRNAMGWYRQAPWKERELVAAISRSGDSTRYADSVKGRFTISRDNAKYSVYLQRTSLKPEATAVYYCNKLGTGVYEMDYWGQGTKVTVSS | high polyreactivity
QVQLVESGGGLVQAGGSLRLSCAASGRTFWRYAMGWDRQAPGKERELVAGITNSGGNTYYADSVKGRFTISRDNAKNTVYLQMNSLKPEDTAVYYCAARSGRFKYSSWSRGPTYDYWGQGTQVTVSS | low polyreactivity
QVQLVESGGGLVQAGGSLRLSCAASGRTFWSYAMGWYRQAPGKEREFVAAISRRGGITYYADSVKGRFTISRDNAKNTVYLQMNSLKPEDTAVYYCAKGAQSYYGGQVKYDYWGQGTQVTVSS | high polyreactivity
QVQLVESGGGLVQAGGSLRLSCAASGRTFWTYTMGWYRQAPGKEREFVAAITFGDGSTSYADSVKGRFTISRDNAKNTVYLQMNSLKPEDTAVYSCAKRWRRRFVDVWSLYDYWGQGTQVTVSS | low polyreactivity
QVQLVESGGGLVQAGGSLRLSCAASGRTFWWYTMGWYRQAPGKERELVAVISSTGGRTYYADSVKGRFTISRDNAKNTVYLQMNSLKPEDTSVYYCAAEYVSAKWEYGYWGQGTQVTVSS | low polyreactivity
QVQLVESGGGLVQAGGSLRLSCAASGRTFWYNAMGWYRQAPGKERELVAAISSSGGTTYYADSVKGRFTISRDNAKNTVYLQMNSLIPEDTAVYYCARQRRSVNVYKNIYKYWGQGTQVNVSS | high polyreactivity
QVQLVESGGGLVQAGGSLRLSCAASGRTFWYYAMGWYRPAPGKERELVAGIRSGGSTYYADSVKGRFTISRDNAKNTVYLQMNSLKPEDTAVYYCATDYYYSNAKYDYWGQGTQVTVSS | high polyreactivity

Sequence | polyreactivity (PSR sort gate)
QVQLVESGGGLVQAGGSLRLSCAASGRTFWYYAMGWYRQAPGKERELVASISRSGGSTYYADSVKGRFTISRDNAKNTVYLQMNSLKPEDTAVYYCARGSELGYYAWVYYWGQGTQVTVSS | high polyreactivity
QVQLVESGGGLVQAGGSLRLSCAASGRTFWYYAMGWYRQAPGKERELVAVINSSGGRTYYADSVKGRFTISRDNAKNTVYLQMNSLKPEDTAVYYCAAYRGVPSRYDYWGQGTQVTVSS | high polyreactivity
QVQLVESGGGLVQAGGSLRLSCAASGRTFWYYDMGWSRQAPGKERELVAAISRSGGSTYYADSVKGRFTISRDNAKNTVYLQMNSLKPEDTAVYFCAAVSYGYWVTEYYYWGQGSQVTVSS | high polyreactivity
QVQLVESGGGLVQAGGSLRLSCAASGRTFWYYEMGWYRQAPGKERELVATINNVGSTHYADSVKGRFTISRDNAKNTVYLQMNSLKPEDTAVYYCGRASYGKMDYWGQGTQVTVSS | high polyreactivity
QVQLVESGGGLVQAGGSLRLSCAASGRTFWYYTMGWYRQAPGKERELVAAISRSGGSTYYADSVKGRFTISRDNAKNTVYLQMNSLKPEDSAVYFCAAGVQSSVYPYYRFDYWGQGTQVTVSS | high polyreactivity
QVQLVESGGGLVQAGGSLRLSCAASGRTFWYYTMGWYRQAPGKERELVAAITRRGGSTYYADSVKGRFTISRDNAKNTVYLQMNSLKPEDTAVYYCARGGSRLTQGWLVTPYDYDYWGQGTQVTVSS | high polyreactivity
QVQLVESGGGLVQAGGSLRLSCAASGRTFYANAMGWYRQAPGKERELVAGISYSGGNTYYADSVKGRFTISRDNAKNTVYLQMNRLKPEYTAVYYCAAATDWEYWTYEYWRQGTQVTVSS | low polyreactivity
QVQLVESGGGLVQAGGSLRLSCAASGRTFYANDMGWYRQAPGKERELVAAISSSVTSTHYADSVKGRFTISRDNAKNTVYLQMNSLKPEDTAVYYCNKDPIREVPPPGPSEMDYWGQGTQVTVSS | low polyreactivity
QVQLVESGGGLVQAGGSLRLSCAASGRTFYAYVMGWYRQAPGKERELVAAISGGGRTYYADSVKGRFTISRDNAKNTVYLQMNSLKPEDTAVYYCAAVSLWYSAYEYWGQGTQVTVSS | high polyreactivity
QVQLVESGGGLVQAGGSLRLSCAASGRTFYDNTMGWYRQAPGKERELVAAINWSGTRTYYADSVKGRFTISRDNAKNTVYLQMNSLKPEDTAVYYCAADGPFRRTYGYWGQGTQVTVSS | low polyreactivity
QVQLVESGGGLVQAGGSLRLSCAASGRTFYDNTMGWYRQAPWKERELVAAISRGGSTYADSVKGRFTISRDNAKNTVYLQMNSLKPEDTAVYYCNKRSITTEYGYWGQGTQVTVSS | low polyreactivity
QVQLVESGGGLVQAGGSLRLSCAASGRTFYDYAMGWYRQAPGKERELVAGIRWSGGSTYYADSVKGRFTISRDNAKNTVYLQMISLKPEDTAVYYCAADWFAGVAADVEYDYWGQGTQVTVSS | low polyreactivity
QVQLVESGGGLVQAGGSLRLSCAASGRTFYEYTIGWYRQAPGKERELVAAITWSVGSTYYADSVKGRFTISRDIAKNTVYLQMNSLKPEETAVYDCAAYYYVWYYYWGQGTQVTVSS | low polyreactivity
QVQLVESGGGLVQAGGSLRLSCAASGRTFYFNAMGWYRPAPGKERELVAAITSGVRTKYADSVKGRFTISRDNAKNTVYLQMNSLKPEDTAVYYCAAGGYPSRYAPWMEYWGQGTQVTVSS | high polyreactivity
QVQLVESGGGLVQAGGSLRLSCAASGRTFYFYAMGWYRQAPGKERELVAAISSGASTYYADSVKGRFTISRDNAKNTVYLQMNSLKPEDTAVYYCAAEFWTQWSGYEYWGQGTQVTVSS | high polyreactivity
QVQLVESGGGLVQAGGSLRLSCAASGRTFYFYAMGWYRQAPGKERELVAAISWTGGITYYADSVKGRFTISRDNAKNTVYLQMNSLKPEDTAVYYCAAGYYYKVYWGQGTQVTVSS | low polyreactivity
QVQLVESGGGLVQAGGSLRLSCAASGRTFYFYAMGWYRQAPGKERELVAGISWRGVSTYYADSVKGRFTISRDNAKNTVYLQMNSLKPEDTAVYYCAADIGRHTDNYDPRYDYWGQGTQVTVSS | low polyreactivity
QVQLVESGGGLVQAGGSLRLSCAASGRTFYGNAMGWYRQAPGKERELVAAISWSGGSTYYADSVKGRFTISRDNAKNTVYLQMNSLKPEDTAVYYCNADYFAWDLMYYWGHGTQVTVSS | low polyreactivity
QVQLVESGGGLVQAGGSLRLSCAASGRTFYGNAMGWYSQAPGKERELVAAITDVDSTYYADSVKGRFTISRDNAKNSVYLQMNSLKPEDTAVYYCNADTSWGYPYGYWGQGTQVTVSS | low polyreactivity
QVQLVESGGGLVQAGGSLRLSCAASGRTFYGNTMGWYIQAPGKERELVAAITRSGGSTYYADSVKGRFTISRDNAKNTVYFQMNSLKPEDTAVYYCAASRTYYAPYGYWGQGTQVTVSS | high polyreactivity
QVQLVESGGGLVQAGGSLRLSCAASGRTFYGYAMGWSRPAPGKERELVAAISTGGSTSYADSVKGRFTISRDNAKNTVYLQMNSLKPEDTAVYYCAAVYYLTDWYGVWYSFDYWGQGTQVTVSS | low polyreactivity
